The text below walks through data of patent US6627617.

Data set [1] relates to D412A-68 D412A (Adeno-associated virus 2). Nature of the data set: EMSA. The following applies: apparent Kd, same as wt; 40 mM KCl, 10 mM HEPES pH 7.5, poly dIdC, 25 C. In general terms: In EMSA bound probe runs differently from free probe, usually more slowly.
For data set [2], the system named is Rep68H6 (wt Rep68) (Adeno-associated virus 2). Description: EMSA. The following applies: apparent Kd; 40 mM KCl, 10 mM HEPES pH 7.5, poly dIdC, 25 C.

Consider “AAV terminal repeat hairpin with double-stranded trs (32P-TR)”, for which the Kd in data set [1] and in data set [2] was 3 nM in each case.
